Test results reported in patent US20060240474A1, “Peptides able to switch between two structural states and their use” (UNIVERSITY OF SUSSEX, priority 2002, published 2006).
Where a SMILES comes first, the peptide text is derived from it. Bridges are numbered along the chain shown (N, C = ends). Roman numbers before positions name the chains, in order. Where no end group is shown, it is not given here. The star is where a group is joined. Cam = NC(=O)C*

Columns and labels:
[1] = Thermal unfolding followed by CD spectroscopy; format: physicochemical; settings: for TM of the oxidised state: oxidised form; for TM of the oxidised state / TM of the reduced, dimeric form: ±2 for all three values; for thermal stability in words: comparator named in the value; for thermal destabilisation compared with CSP-3o: oxidised forms; for midpoint of thermal unfolding transition, TM: FIG. 3B, concentration not given
Experimental: (§1) Circular dichroism spectroscopy. CD measurements were made using a JASCO J-715 spectropolarimeter fitted with a Peltier temperature controller. Peptide solutions were prepared in 25 mM potassium phosphate buffer at pH 7 and were examined in 1 mm or 1 cm quartz cuvettes (with stirring). Spectra were recorded at 5° C. using 1 nm intervals, a 1 nm bandwidth and 4 sec response time. Thermal unfolding curves were recorded through 1° C. min^−1 ramps using a 2 nm bandwidth, averaging the signal for 16 s every 1° C. intervals. After baseline correction, ellipticities in mdeg were converted to molar ellipticities (deg cm^2 dmol-res-^−1) by normalising for the concentration of peptide bonds.

[2] = Circular dichroism spectroscopy (helicity); format: physicochemical; settings: for helix content judged by CD spectroscopy: pH 7, 5° C., 100 μM peptide (b86 prints 100 mM); for helicity compared with other designs (CD signal at 222 nm): pH 7, comparator named in the value
Experimental: as §1

[3] = biological target: the molecule itself; assay: sedimentation equilibrium AUC, monomer-dimer fit, pH 7, 5 C (homodimerisation)
Experimental: Sedimentation equilibrium experiments were conducted at 5° C. in a Beckman-Optima XL-I analytical ultracentrifuge fitted with an An-60 Ti rotor. A […] peptide solution at […] in 25 mM K phosphate buffer pH 7 containing 0.1 M KCl was equilibrated for 48 h at speeds of 40 000, 47 500/50 000 and 55 000/60 000 rpm. Data were fitted simultaneously assuming either a single ideal species or a monomer-dimer equilibrium and fixed monomer molecular weight, using routines in the Beckman-Optima XL-A/XLI-I data analysis software (v4.0). The molecular weights (Table 2) and partial specific volumes (range 0.7417 to 0.7461) of the peptides were calculated from their amino-acid sequences, and the viscosity of the buffer at 5° C. was taken to be […].

## CC[C@H](C)[C@H](NC(=O)[C@H](CCCCN)NC(=O)[C@H](CCC(N)=O)NC(=O)[C@H](CCC(=O)O)NC(=O)[C@H](CC(C)C)NC(=O)[C@H](C)NC(=O)[C@H](CCCNC(=N)N)NC(=O)[C@@H](NC(=O)[C@H](CCCCN)NC(=O)[C@H](C)NC(=O)[C@H](CCC(N)=O)NC(=O)[C@H](CCCCN)NC(=O)[C@H](C)NC(=O)[C@H](CCC(N)=O)NC(=O)[C@H](CCCCN)NC(=O)[C@H](CC(C)C)NC(=O)[C@H](CCCNC(=N)N)NC(=O)[C@H](C)NC(=O)[C@@H](NC(=O)[C@H](CCC(=O)O)NC(=O)[C@H](Cc1ccc(O)cc1)NC(=O)[C@H](CCCCN)NC(=O)[C@H](CC(C)C)NC(=O)[C@H](C)NC(=O)[C@H](CCCNC(=N)N)NC(=O)[C@@H](NC(=O)[C@H](CCC(=O)O)NC(=O)CNC(=O)CNC(=O)[C@@H](N)CS)[C@@H](C)CC)[C@@H](C)CC)[C@@H](C)CC)C(=O)N[C@@H](C)C(=O)N[C@@H](C)C(=O)N[C@@H](CC(C)C)C(=O)N[C@@H](CCC(=O)O)C(=O)NCC(=O)NCC(=O)N[C@@H](CS)C(=O)O [CSP-3] (H-CGGEIRALKYEIARLKQAKQAKIRALEQKIAALEGGC-OH; N-terminus and C-terminus assumed)
[1]
  TM of the oxidised state: 50 °C
  TM of the reduced, dimeric form: 40 °C

## CC[C@H](C)[C@H](NC(=O)[C@H](CCCCN)NC(=O)[C@H](CCC(N)=O)NC(=O)[C@H](CCC(=O)O)NC(=O)[C@H](CC(C)C)NC(=O)[C@H](C)NC(=O)[C@H](CCCNC(=N)N)NC(=O)[C@@H](NC(=O)[C@H](CCCCN)NC(=O)[C@H](C)NC(=O)[C@H](CCC(N)=O)NC(=O)[C@H](C)NC(=O)[C@H](C)NC(=O)[C@H](CCC(N)=O)NC(=O)[C@H](CCCCN)NC(=O)[C@H](CC(C)C)NC(=O)[C@H](CCCNC(=N)N)NC(=O)[C@H](C)NC(=O)[C@@H](NC(=O)[C@H](CCC(=O)O)NC(=O)[C@H](Cc1ccc(O)cc1)NC(=O)[C@H](CCCCN)NC(=O)[C@H](CC(C)C)NC(=O)[C@H](C)NC(=O)[C@H](CCCNC(=N)N)NC(=O)[C@@H](NC(=O)[C@H](CCC(=O)O)NC(=O)CNC(=O)CNC(=O)[C@@H](N)CS)[C@@H](C)CC)[C@@H](C)CC)[C@@H](C)CC)C(=O)N[C@@H](C)C(=O)N[C@@H](C)C(=O)N[C@@H](CC(C)C)C(=O)N[C@@H](CCC(=O)O)C(=O)NCC(=O)NCC(=O)N[C@@H](CS)C(=O)O [CSP-6] (H-CGGEIRALKYEIARLKQAAQAKIRALEQKIAALEGGC-OH; N-terminus and C-terminus assumed)
[1]
  TM of the oxidised state: 47 °C
  TM of the reduced, dimeric form: 75 °C

## CC[C@H](C)[C@H](NC(=O)[C@H](CCCCN)NC(=O)[C@H](CCC(N)=O)NC(=O)[C@H](CCC(=O)O)NC(=O)[C@H](CC(C)C)NC(=O)[C@H](C)NC(=O)[C@H](CCCNC(=N)N)NC(=O)[C@H](CCCCN)NC(=O)[C@H](CCCCN)NC(=O)[C@H](C)NC(=O)[C@H](CCC(N)=O)NC(=O)[C@H](C)NC(=O)[C@H](C)NC(=O)[C@H](CCC(N)=O)NC(=O)[C@H](CCCCN)NC(=O)[C@H](CC(C)C)NC(=O)[C@H](CCCNC(=N)N)NC(=O)[C@H](C)NC(=O)[C@@H](NC(=O)[C@H](CCC(=O)O)NC(=O)[C@H](Cc1ccc(O)cc1)NC(=O)[C@H](CCCCN)NC(=O)[C@H](CC(C)C)NC(=O)[C@H](C)NC(=O)[C@H](CCCNC(=N)N)NC(=O)[C@@H](NC(=O)[C@H](CCC(=O)O)NC(=O)CNC(=O)CNC(=O)[C@@H](N)CS)[C@@H](C)CC)[C@@H](C)CC)C(=O)N[C@@H](C)C(=O)N[C@@H](C)C(=O)N[C@@H](CC(C)C)C(=O)N[C@@H](CCC(=O)O)C(=O)NCC(=O)NCC(=O)N[C@@H](CS)C(=O)O [CSP-7] (H-CGGEIRALKYEIARLKQAAQAKKRALEQKIAALEGGC-OH; N-terminus and C-terminus assumed)
[1]
  TM of the oxidised state: 53±2 °C
  TM of the reduced, dimeric form: 34±2 °C

## CGGEIRALKYEIARLKQ----KKRALEQKIAALEGGC [CSP-1o] (disulfide I:1-II:16; not fully specified)
[2]
  helix content judged by CD spectroscopy: 20%
[1]
  thermal stability in words: changed little upon heating

## CGGEIRALKYEIARLKQ----KKRALEQKIAALEGGC [CSP-1r] (not fully specified (some residues); cysteine pairing not given here)
[2]
  helix content judged by CD spectroscopy: 90%
[1]; 10 mM sample (so in the source)
  transition midpoint, TM: 50 °C
[1]; 100 mM peptide (so in the source)
  transition midpoint, TM: 62 °C

## CGGEIRALKYEIARLKQAAQAKIRALEQKIAALEGGC [CSP-6r]
[2]
  helicity compared with other designs (CD signal at 222 nm): significantly increased over the other hendecad-containing designs CSP-2r and CSP-3r
[1]; 10 μM peptide
  TM: 61±2 °C
[1]
  thermal stability in words: significantly increased over the other hendecad-containing designs CSP-2r and CSP-3r

## CGGEIRALKYEIARLKQAAQAKKRALEQKIAALEGGC [CSP-7o] (disulfide 1-37)
[1]
  thermal stability in words: affected less

## CGGEIRALKYEIARLKQAAQAKKRALEQKIAALEGGC [CSP-7r]
[2]
  helicity compared with other designs (CD signal at 222 nm): compromised both the helicity and the thermal stability
[1]
  thermal stability in words: compromised both the helicity and the thermal stability

## CGGEIRALKYEIARLKQAKQAEIRALKQEIAALKGGC [CSP-4o] (disulfide 1-37)
[2]
  helicity compared with other designs (CD signal at 222 nm): marginally less helical than the parent, CSP-3o
[1]
  thermal destabilisation compared with CSP-3o: ~20 °C

## CGGEIRALKYEIARLKQAKQAEIRALKQEIAALKGGC [CSP-4r]
[1]; reduced forms
  thermal stability higher than CSP-3r by: ~8 °C

## CGGEIRALKYEIARLKQAKQAKIRALEQKIAALEGGC [CSP-3r]
[2]
  helicity compared with other designs (CD signal at 222 nm): approximate three-fold improvement in helicity over CSP-2r
[1]
  midpoint of thermal unfolding transition, TM: 40±2 °C

## CGGEIRALKYEIARLKQGGGGKKRALEQKIAALEGGC [CSP-2o] (disulfide 1-37)
[2]
  helix content judged by CD spectroscopy: ~40%
  helicity compared with other designs (CD signal at 222 nm): approximately double the helical signal ([θ]222) of the parent peptide
[1]
  midpoint of thermal unfolding transition, TM: 40±2 °C

## CGGEIRALKYEIARLKQGGGGKKRALEQKIAALEGGC [CSP-2r]
[2]
  helix content judged by CD spectroscopy: ~20%
[1]
  midpoint of thermal unfolding transition, TM: 22±2 °C

## CGGKIRALEYKIARLEQAKQAKIRALEQKIAALEGGC [CSP-5o] (disulfide 1-37)
[2]
  helicity compared with other designs (CD signal at 222 nm): marginally less helical than the parent, CSP-3o
[1]
  thermal destabilisation compared with CSP-3o: ~20 °C

## CGGKIRALEYKIARLEQAKQAKIRALEQKIAALEGGC [CSP-5r]
[1]; reduced forms
  thermal stability lower than the parent (CSP-3r) by: 12 °C

B1: CSP-1r (Coiled-coil-Switch Peptide-1, reduced and alkylated) (peptide)
peptide: C(Cam)GGEIRALKYEIARLKQKKRALEQKIAALEGGC(Cam)
notes: Synthetic designed peptide; The entry is the monomer chain; the KD is for its monomer-dimer equilibrium (parallel coiled-coil homodimer); also called design iteration 1, reduced & alkylated; CSP-2a (Maya's nomenclature)
[3]
  Kd: 33 µM

B2: CSP-5r (reduced and alkylated) (peptide)
peptide: C(Cam)GGKIRALEYKIARLEQAKQAKIRALEQKIAALEGGC(Cam)
notes: Anagram mutant of CSP-3 with all g:e pairs Lys:Glu; also called design iteration 5, reduced & alkylated; CSP-6a (Maya's nomenclature)
[3]
  Kd: 72 µM

B3: CSP-6r (reduced and alkylated) (peptide)
peptide: C(Cam)GGEIRALKYEIARLKQAAQAKIRALEQKIAALEGGC(Cam)
notes: CSP-3 with the Lys at the h position replaced by Ala; also called design iteration 6, reduced & alkylated; CSP-7a (Maya's nomenclature)
[3]
  Kd: 34 µM

B4: CSP-7r (reduced and alkylated) (peptide)
peptide: C(Cam)GGEIRALKYEIARLKQAAQAKKRALEQKIAALEGGC(Cam)
notes: CSP-6 with the Ile at the a site after the hendecad unit replaced by Lys; also called design iteration 7, reduced & alkylated; CSP-8a (Maya's nomenclature)
[3]
  Kd: 506 µM

B5: CSP-3r (reduced and alkylated) (peptide)
peptide: C(Cam)GGEIRALKYEIARLKQAKQAKIRALEQKIAALEGGC(Cam)
notes: The entry is the monomer chain; the KD is for its monomer-dimer equilibrium; also called CSP-3a; design iteration 3, reduced & alkylated
[3]
  Kd: 191 µM

B6: CSP-4r (reduced and alkylated) (peptide)
peptide: C(Cam)GGEIRALKYEIARLKQAKQAEIRALKQEIAALKGGC(Cam)
notes: Anagram mutant of CSP-3 with all g:e pairs Glu:Lys; also called design iteration 4, reduced & alkylated; CSP-5a (Maya's nomenclature)
[3]
  Kd: 77 µM
